In IntAct's records for PubMed 16230351:

B1: E3 ubiquitin-protein ligase SIAH1 (Homo sapiens), Q8IUQ4 (parent)
chain: MSRQTATALPTGTSKCPPSQRVPALTGTTASNNDLASLFECPVCFDYVLPPILQCQSGHLVCSNCRPKLTCCPTCRGPLGSIRNLAMEKVANSVLFPCKYASSGCEITLPHTEKADHEELCEFRPYSCPCPGASCKWQGSLDAVMPHLMHQHKSITTLQGEDIVFLATDINLPGAVDWVMMQSCFGFHFMLVLEKQEKYDGHQQFFAIVQLIGTRKQAENFAYRLELNGHRRRLTWEATPRSIHEGIATAIMNSDCLVFDTSIAQLFAENGNLGINVTISMC
partner: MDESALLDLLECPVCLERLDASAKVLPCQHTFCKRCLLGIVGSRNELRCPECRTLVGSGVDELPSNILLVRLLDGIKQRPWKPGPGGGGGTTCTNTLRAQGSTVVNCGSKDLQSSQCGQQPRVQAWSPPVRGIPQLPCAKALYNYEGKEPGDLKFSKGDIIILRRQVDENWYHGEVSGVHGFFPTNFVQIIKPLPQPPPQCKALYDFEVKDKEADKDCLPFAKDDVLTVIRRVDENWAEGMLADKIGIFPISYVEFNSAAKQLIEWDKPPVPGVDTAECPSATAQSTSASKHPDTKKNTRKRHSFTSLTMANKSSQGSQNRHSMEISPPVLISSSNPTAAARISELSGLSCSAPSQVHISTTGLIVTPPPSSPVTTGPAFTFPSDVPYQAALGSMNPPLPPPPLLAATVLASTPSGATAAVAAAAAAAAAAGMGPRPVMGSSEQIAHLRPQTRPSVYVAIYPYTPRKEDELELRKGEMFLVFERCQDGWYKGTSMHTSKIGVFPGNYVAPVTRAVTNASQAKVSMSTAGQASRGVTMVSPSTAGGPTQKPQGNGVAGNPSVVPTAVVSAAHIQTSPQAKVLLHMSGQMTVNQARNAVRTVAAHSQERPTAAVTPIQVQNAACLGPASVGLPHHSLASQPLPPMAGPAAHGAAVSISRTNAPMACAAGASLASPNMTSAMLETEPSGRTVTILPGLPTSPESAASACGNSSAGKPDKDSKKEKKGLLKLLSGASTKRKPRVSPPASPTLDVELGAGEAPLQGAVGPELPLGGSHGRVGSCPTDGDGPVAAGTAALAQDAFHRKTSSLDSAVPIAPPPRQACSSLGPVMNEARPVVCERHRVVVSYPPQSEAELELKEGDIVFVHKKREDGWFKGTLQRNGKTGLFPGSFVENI

Variants of: B1
Conditions: with sh3r1_mouse Sh3rf1, Q69ZI1

effect of a mutation on the interaction | Variant
decreasing interaction | C41S;C44S
